Columns and labels:
Assay in all cases: rNET
… analog, Residue 5 = W = molecular target: … analog, Residue 5 = W
… analog, Residue 7 = R = molecular target: … analog, Residue 7 = R
… analog, Residue 5 = V = molecular target: … analog, Residue 5 = V
… analog, Residue 5 = S = molecular target: … analog, Residue 5 = S
… analog, Residue 5 = D = molecular target: … analog, Residue 5 = D
… analog, Residue 5 = P = molecular target: … analog, Residue 5 = P
… analog, Residue 5 = L = molecular target: … analog, Residue 5 = L
… analog, Residue 6 = W = molecular target: … analog, Residue 6 = W
… analog, Residue 5 = T = molecular target: … analog, Residue 5 = T
… analog, Residue 6 = V = molecular target: … analog, Residue 6 = V
… analog, Residue 4 = R = molecular target: … analog, Residue 4 = R
… analog, Residue 4 = C = molecular target: … analog, Residue 4 = C
… analog, Residue 4 = D = molecular target: … analog, Residue 4 = D
… analog, Residue 7 = G = molecular target: … analog, Residue 7 = G
… analog, Residue 5 = C = molecular target: … analog, Residue 5 = C
… analog, Residue 6 = C = molecular target: … analog, Residue 6 = C
… analog, Residue 5 = Q = molecular target: … analog, Residue 5 = Q
… analog, Residue 6 = Q = molecular target: … analog, Residue 6 = Q
… analog, Residue 7 = V = molecular target: … analog, Residue 7 = V
… analog, Residue 7 = T = molecular target: … analog, Residue 7 = T
… analog, Residue 6 = F = molecular target: … analog, Residue 6 = F
… analog, Residue 6 = P = molecular target: … analog, Residue 6 = P
… analog, Residue 4 = P = molecular target: … analog, Residue 4 = P
… analog, Residue 7 = M = molecular target: … analog, Residue 7 = M
… analog, Residue 6 = M = molecular target: … analog, Residue 6 = M
… analog, Residue 7 = K = molecular target: … analog, Residue 7 = K
… analog, Residue 4 = T = molecular target: … analog, Residue 4 = T
… analog, Residue 6 = R = molecular target: … analog, Residue 6 = R
… analog, Residue 7 = I = molecular target: … analog, Residue 7 = I
… analog, Residue 7 = W = molecular target: … analog, Residue 7 = W
… analog, Residue 4 = G = molecular target: … analog, Residue 4 = G
… analog, Residue 7 = Q = molecular target: … analog, Residue 7 = Q
… analog, Residue 7 = Y = molecular target: … analog, Residue 7 = Y
… analog, Residue 4 = M = molecular target: … analog, Residue 4 = M
… analog, Residue 6 = K = molecular target: … analog, Residue 6 = K
… analog, Residue 4 = N = molecular target: … analog, Residue 4 = N
… analog, Residue 6 = E = molecular target: … analog, Residue 6 = E
… analog, Residue 5 = A = molecular target: … analog, Residue 5 = A
… analog, Residue 6 = N = molecular target: … analog, Residue 6 = N
… analog, Residue 4 = K = molecular target: … analog, Residue 4 = K
… analog, Residue 6 = D = molecular target: … analog, Residue 6 = D
… analog, Residue 5 = F = molecular target: … analog, Residue 5 = F
… analog, Residue 4 = Y = molecular target: … analog, Residue 4 = Y
… analog, Residue 5 = M = molecular target: … analog, Residue 5 = M
… analog, Residue 5 = E = molecular target: … analog, Residue 5 = E
… analog, Residue 6 = I = molecular target: … analog, Residue 6 = I
… analog, Residue 4 = W = molecular target: … analog, Residue 4 = W
… analog, Residue 7 = L = molecular target: … analog, Residue 7 = L
… analog, Residue 5 = N = molecular target: … analog, Residue 5 = N
… analog, Residue 7 = F = molecular target: … analog, Residue 7 = F
… analog, Residue 4 = E = molecular target: … analog, Residue 4 = E
… analog, Residue 7 = A = molecular target: … analog, Residue 7 = A
… analog, Residue 6 = Y = molecular target: … analog, Residue 6 = Y
… analog, Residue 6 = A = molecular target: … analog, Residue 6 = A
… analog, Residue 7 = C = molecular target: … analog, Residue 7 = C
… analog, Residue 4 = V = molecular target: … analog, Residue 4 = V
… analog, Residue 5 = I = molecular target: … analog, Residue 5 = I
… analog, Residue 7 = P = molecular target: … analog, Residue 7 = P
… analog, Residue 7 = S = molecular target: … analog, Residue 7 = S
… analog, Residue 6 = L = molecular target: … analog, Residue 6 = L
… analog, Residue 6 = G = molecular target: … analog, Residue 6 = G
… analog, Residue 4 = S = molecular target: … analog, Residue 4 = S
… analog, Residue 5 = Y = molecular target: … analog, Residue 5 = Y
… analog, Residue 4 = Q = molecular target: … analog, Residue 4 = Q
… analog, Residue 4 = L = molecular target: … analog, Residue 4 = L
… analog, Residue 4 = I = molecular target: … analog, Residue 4 = I
… analog, Residue 4 = A = molecular target: … analog, Residue 4 = A

B1: murine monoclonal antibody 3D6 (antibody, mouse IgG2b, V domains shown)
VL: not shown
VH: EVKLVESGGGLVKPGASLKLSCAASGFTFSNYGMSWVRQNSDKRLEWVASIRSGGGRTYYSDNVKGRFTISRENAKNTLYLQMSSLKSEDTALYYCVRYDHYSGSSDYWGQGTTVTVSS
- OD (… analog, Residue 5 = W): 0.393 OD
- OD (… analog, Residue 7 = R): 0.551 OD
- OD (… analog, Residue 5 = V): 0.493 OD
- OD (… analog, Residue 5 = S): 0.487 OD
- OD (… analog, Residue 5 = D): 0.08 OD
- OD (… analog, Residue 5 = P): 0.093 OD
- OD (… analog, Residue 5 = L): 0.517 OD
- OD (… analog, Residue 6 = W): 0.576 OD
- OD (… analog, Residue 5 = T): 0.53 OD
- OD (… analog, Residue 6 = V): 0.588 OD
- OD (… analog, Residue 4 = R): 0.016 OD
- OD (… analog, Residue 4 = C): 0.02 OD
- OD (… analog, Residue 4 = D): 0.017 OD
- OD (… analog, Residue 7 = G): 0.562 OD
- OD (… analog, Residue 5 = C): 0.359 OD
- OD (… analog, Residue 6 = C): 0.585 OD
- OD (… analog, Residue 5 = Q): 0.388 OD
- OD (… analog, Residue 6 = Q): 0.57 OD
- OD (… analog, Residue 7 = V): 0.563 OD
- OD (… analog, Residue 7 = T): 0.56 OD
- OD (… analog, Residue 6 = F): 0.586 OD
- OD (… analog, Residue 6 = P): 0.587 OD
- OD (… analog, Residue 4 = P): 0.03 OD
- OD (… analog, Residue 7 = M): 0.562 OD
- OD (… analog, Residue 6 = M): 0.583 OD
- OD (… analog, Residue 7 = K): 0.565 OD
- OD (… analog, Residue 4 = T): 0.016 OD
- OD (… analog, Residue 6 = R): 0.576 OD
- OD (… analog, Residue 7 = I): 0.552 OD
- OD (… analog, Residue 7 = W): 0.547 OD
- OD (… analog, Residue 4 = G): 0.016 OD
- OD (… analog, Residue 7 = Q): 0.563 OD
- OD (… analog, Residue 7 = Y): 0.56 OD
- OD (… analog, Residue 4 = M): 0.549 OD
- OD (… analog, Residue 6 = K): 0.585 OD
- OD (… analog, Residue 4 = N): 0.085 OD
- OD (… analog, Residue 6 = E): 0.579 OD
- OD (… analog, Residue 5 = A): 0.275 OD
- OD (… analog, Residue 6 = N): 0.58 OD
- OD (… analog, Residue 4 = K): 0.015 OD
- OD (… analog, Residue 6 = D): 0.584 OD
- OD (… analog, Residue 5 = F): 0.439 OD
- OD (… analog, Residue 4 = Y): 0.529 OD
- OD (… analog, Residue 5 = M): 0.418 OD
- OD (… analog, Residue 5 = E): 0.115 OD
- OD (… analog, Residue 6 = I): 0.602 OD
- OD (… analog, Residue 4 = W): 0.291 OD
- OD (… analog, Residue 7 = L): 0.566 OD
- OD (… analog, Residue 5 = N): 0.476 OD
- OD (… analog, Residue 7 = F): 0.546 OD
- OD (… analog, Residue 4 = E): 0.016 OD
- OD (… analog, Residue 7 = A): 0.58 OD
- OD (… analog, Residue 6 = Y): 0.595 OD
- OD (… analog, Residue 6 = A): 0.587 OD
- OD (… analog, Residue 7 = C): 0.559 OD
- OD (… analog, Residue 4 = V): 0.213 OD
- OD (… analog, Residue 5 = I): 0.51 OD
- OD (… analog, Residue 7 = P): 0.582 OD
- OD (… analog, Residue 7 = S): 0.563 OD
- OD (… analog, Residue 6 = L): 0.584 OD
- OD (… analog, Residue 6 = G): 0.592 OD
- OD (… analog, Residue 4 = S): 0.026 OD
- OD (… analog, Residue 5 = Y): 0.278 OD
- OD (… analog, Residue 4 = Q): 0.065 OD
- OD (… analog, Residue 4 = L): 0.559 OD
- OD (… analog, Residue 4 = I): 0.119 OD
- OD (… analog, Residue 4 = A): 0.016 OD

Reference: patent US20040087777A1
